Assay results from US11767353B2, “Trail compositions with reduced immunogenicity” (Theraly Fibrosis, Inc., priority 2020, dated 2023).
Like-named read-outs stand apart in the source and are kept apart here.

Columns and labels:
[1] = in mice; cited from earlier work
ASPC-1/PSC xenografts = assay: PSC/ASPC-1 subcutaneous xenograft in athymic nude mice; assay type: in vivo; details: TLY012 IV 10 mg/kg every other day and/or sorafenib 20 mg/kg oral everyday for 2 weeks
Protocol: Six-week-old athymic nude mice were anesthetized for all procedures 5×10^6ASPC-1 cells (human pancreas adenocarcinoma ascites metastasis cell line derived from nude mouse xenografts initiated with cells from the ascites of a patient with cancer of the pancreas) were mixed with 5×10^4 PSC cells and injected in a subcutaneous in athymic nude mice. Before injection, the cells were trypsinized, counted, washed twice in 1×PBS and resuspended in 100 μl of Matrigel® matrix (Corning), and injected between the scapulae. Two weeks after the tumor transplantation, mice were injected with TLY012 via intravenous (IV) injection (10 mg/kg, every other day) for 2 weeks, while control mice received PBS. Western blot was performed on tissue extracts with antibodies against GAPDH (Santa Cruz 5 Biotechnology, sc-1694), α-SMA (Sigma, A2547), GRP78 (Santa Cruz Biotechnology, sc-13968), DR4 (Abcam, Cambridge, Mass., #13890), DR5 (Abcam, #47179), PDGF-Rb (Santa Cruz Biotechnology, sc-432), and Cl.PARP-1 (Cell Signaling Technology, #5625).
Comparative quantitative RT-PCR (qPCR) was performed in the tumor sample for fibrogenic markers. qPCR was performed in triplicate for each sample using fast SYBR Green Master Mix (Thermo Fisher Scientific) and StepOnePlus Real-Time PCR System (Thermo Fisher Scientific). The expression levels of target genes were normalized to the expression of 18s and calculated based on the comparative cycle threshold Ct method (2^−ΔΔCt).
Collagen deposition was detected with Masson's Trichrome staining and microscopy.
Mouse xenografts were generated as in Example 8. Two weeks after the tumor transplantation, mice were injected with TLY012 via intravenous (IV) injection (10 mg/kg, every other day) and/or sorafenib (20 mg/kg, oral everyday) for 2 weeks. The mice were euthanized when the tumor volume reached 1500 mm^3 and images of the excised xenografts recorded and tumor weight measured.

[2] = in apes; cited from earlier work
[3] = in rodents; cited from earlier work

Compound	circulating half-life [1] [h]	also measured
2K-PEG-TRAIL: 2K PEG derivatized TRAIL reported by Kim et al. 2011a	3.9	–
5K-PEG-TRAIL: 5K PEG derivatized TRAIL reported by Kim et al. 2011a	5.3	–
10K-PEG-TRAIL: 10K PEG derivatized TRAIL reported by Kim et al. 2011a	6.2	–
20K-PEG-TRAIL: 20K PEG derivatized TRAIL reported by Kim et al. 2011a	12.3	–
30K-PEG-TRAIL: 30K PEG derivatized TRAIL reported by Kim et al. 2011a	17.7	–
CNC(=O)c1cc(Oc2ccc(NC(=O)Nc3ccc(Cl)c(C(F)(F)F)c3)cc2)ccn1 [Sorafenib, reference compound]	–	tumor weight, Mean (ASPC-1/PSC xenografts): 967 mg
TRAIL: Tumor necrosis factor-related apoptosis-inducing ligand, unmodified, literature values	1.1	half-life [2]: about 30 minutes; half-life [3]: several minutes
